Experimental data from patent US6150511 (Fox Chase Cancer Center).

Biological target: LexA repressor (UniProt P0A7C2 P0A7C2:1-202)
Test: operator region protected from integration by wild type IN; 5 mM MgCl2, 37 C
Details: chain copies: 2 (stated)
Protocol: Assay for integration into pBR322 targets containing lexA operators. Integration of the model viral DNA duplex into a heterologous target was measured using a PCR-based assay similar to that described by Pryciak et al., EMBO J. 11: 291–303 (1992). The target DNAs, pBR322 derivatives, contain the lexA operator region. To measure integration into a specific region, a "target" PCR primer was selected, which was ca. 250 bp from the lexA operator region. The "viral" primer was identical to the 16nt DNA strand to be joined to the target DNA. The length of the PCR product corresponds to the distance from the target primer site to the integration site. Integration assays contained approximately 0.2 pmoles of PstI linerarized plasmid target DNA, 35 pmoles of IN or IN-lexA fusion protein and 0.1 pmol of viral DNA ends (model substrate). The reaction mixture contained 20 mM Tris-HCl and 5 mM MgCl_2. The viral DNA substrate was a 18 mer/16 mer duplex with a recessed end. This corresponds to a processed viral DNA end, as described previously (Katzman et al., 1989, supra). […] Recovery of target DNA was monitored by agarose gel electrophoresis. […] Products were analyzed on 7% acrylamide-urea sequencing gels. Fragment sizes were determined using a ØX174HaeIII digest and a 10 bp ladder (Bethesda Research Labs).

Chain of LexA repressor (P0A7C2 whole entry, one chain of several): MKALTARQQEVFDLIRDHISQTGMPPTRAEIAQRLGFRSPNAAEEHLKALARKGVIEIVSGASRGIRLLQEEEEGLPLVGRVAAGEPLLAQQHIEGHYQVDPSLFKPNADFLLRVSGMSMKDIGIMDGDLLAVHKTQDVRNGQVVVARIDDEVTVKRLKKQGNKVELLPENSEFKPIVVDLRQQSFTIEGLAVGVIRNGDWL

B1: tandem lexA operator segment (in pBR711-2) (dsDNA)
DNA 1: GGGGTCGACATTACTGTATATATATACAGCATAACTGTATATATATACAGTATAGGATCCGGG
DNA 2: CCCGGATCCTATACTGTATATATATACAGTTATGCTGTATATATATACAGTAATGTCGACCCC
- binding result: binds
